Source: patent US20050100554A1 (published 2005)

Experiments:
[1] = biological target: T1, ribosomal protein L13 (human, UniProt P26373 1-211); experiment: Y2H; INT ID 396
T1 construct: also called RPL13; cbe_1380530

[2] = biological target: T2, TNNC1 (human, UniProt P63316 1-161); experiment: Y2H; INT ID 407
T2 construct: also called cbe_4267981

[3] = biological target: T3, tripartite motif-containing 29 (human, UniProt Q14134 1-588); experiment: Y2H; INT ID 404
T3 construct: also called TRIM29; cbe_3833533
T3 sequence: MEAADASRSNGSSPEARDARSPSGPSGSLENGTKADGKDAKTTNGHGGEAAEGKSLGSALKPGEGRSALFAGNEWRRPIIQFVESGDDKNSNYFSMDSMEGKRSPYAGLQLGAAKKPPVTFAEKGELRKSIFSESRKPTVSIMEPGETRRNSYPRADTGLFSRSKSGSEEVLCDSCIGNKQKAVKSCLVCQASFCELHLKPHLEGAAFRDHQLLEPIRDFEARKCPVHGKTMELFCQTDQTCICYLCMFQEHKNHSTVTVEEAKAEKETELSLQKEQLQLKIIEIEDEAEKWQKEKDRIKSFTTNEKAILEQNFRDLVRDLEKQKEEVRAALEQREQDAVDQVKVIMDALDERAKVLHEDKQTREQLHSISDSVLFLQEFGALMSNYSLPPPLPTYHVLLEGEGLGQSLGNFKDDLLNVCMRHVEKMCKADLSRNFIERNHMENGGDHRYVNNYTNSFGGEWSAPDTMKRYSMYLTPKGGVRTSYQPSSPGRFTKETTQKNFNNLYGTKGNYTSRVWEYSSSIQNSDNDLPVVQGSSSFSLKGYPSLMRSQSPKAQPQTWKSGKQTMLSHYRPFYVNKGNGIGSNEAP

[4] = biological target: T4, Prey2313 (human, UniProt Q8WV44 21-380); experiment: Y2H; INT ID 399
T4 construct: also called Homo sapiens, clone IMAGE: 3625550, mRNA, partial cds; cbe_2685998
T4 sequence: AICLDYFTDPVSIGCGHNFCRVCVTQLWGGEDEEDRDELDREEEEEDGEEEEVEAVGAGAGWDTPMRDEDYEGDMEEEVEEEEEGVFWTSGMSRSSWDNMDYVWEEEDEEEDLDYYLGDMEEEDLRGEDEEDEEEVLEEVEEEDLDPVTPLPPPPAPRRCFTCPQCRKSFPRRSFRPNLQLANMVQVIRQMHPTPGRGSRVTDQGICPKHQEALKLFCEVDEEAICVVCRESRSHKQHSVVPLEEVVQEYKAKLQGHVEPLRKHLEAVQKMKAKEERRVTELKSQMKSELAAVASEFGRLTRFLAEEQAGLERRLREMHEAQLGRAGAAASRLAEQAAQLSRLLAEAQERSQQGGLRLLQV

[5] = biological target: T5, kinesin-associated protein 3 (human, UniProt Q92845 1-792); experiment: Y2H; INT ID 406
T5 construct: also called KIFAP3; cbe_4138433

[6] = biological target: the molecule itself; experiment: Y2H; INT ID 393
[7] = biological target: T6, yeast Sec31p homolog (human, UniProt O94979 1-1220); experiment: Y2H; INT ID 408
T6 construct: also called KIAA0905; cbe_4383836
T6 sequence: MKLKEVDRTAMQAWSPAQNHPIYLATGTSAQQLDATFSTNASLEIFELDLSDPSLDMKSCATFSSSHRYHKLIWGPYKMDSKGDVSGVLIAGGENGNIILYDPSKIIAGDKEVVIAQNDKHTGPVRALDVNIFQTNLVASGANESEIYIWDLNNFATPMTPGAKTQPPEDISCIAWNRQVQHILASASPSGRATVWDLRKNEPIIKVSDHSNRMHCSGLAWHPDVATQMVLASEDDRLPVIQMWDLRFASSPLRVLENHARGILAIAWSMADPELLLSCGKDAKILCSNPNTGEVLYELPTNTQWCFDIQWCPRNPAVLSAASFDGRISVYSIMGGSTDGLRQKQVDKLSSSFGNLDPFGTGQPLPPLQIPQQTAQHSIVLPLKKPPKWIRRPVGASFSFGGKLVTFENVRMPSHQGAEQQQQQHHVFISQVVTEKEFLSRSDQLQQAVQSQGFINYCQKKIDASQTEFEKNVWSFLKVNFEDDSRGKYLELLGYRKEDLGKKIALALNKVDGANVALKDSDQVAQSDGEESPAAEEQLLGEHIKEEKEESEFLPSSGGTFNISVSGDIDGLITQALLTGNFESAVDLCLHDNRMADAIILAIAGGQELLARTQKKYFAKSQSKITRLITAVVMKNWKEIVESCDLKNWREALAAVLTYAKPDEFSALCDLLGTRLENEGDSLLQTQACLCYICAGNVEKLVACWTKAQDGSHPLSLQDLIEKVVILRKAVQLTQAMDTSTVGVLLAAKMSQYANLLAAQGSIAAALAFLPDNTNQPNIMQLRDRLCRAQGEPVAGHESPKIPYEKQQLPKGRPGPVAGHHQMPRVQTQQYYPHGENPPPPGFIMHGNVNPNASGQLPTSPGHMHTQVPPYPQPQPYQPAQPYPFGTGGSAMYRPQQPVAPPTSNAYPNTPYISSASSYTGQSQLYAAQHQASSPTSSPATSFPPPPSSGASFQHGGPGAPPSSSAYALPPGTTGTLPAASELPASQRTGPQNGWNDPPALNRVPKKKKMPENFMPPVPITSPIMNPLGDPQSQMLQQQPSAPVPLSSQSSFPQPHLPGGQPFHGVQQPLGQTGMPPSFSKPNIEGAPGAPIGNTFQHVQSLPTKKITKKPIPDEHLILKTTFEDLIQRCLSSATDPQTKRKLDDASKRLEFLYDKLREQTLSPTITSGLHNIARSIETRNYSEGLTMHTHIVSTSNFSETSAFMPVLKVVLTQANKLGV

[8] = biological target: T7, Prey1207 (human, UniProt Q6PI78 63-240); experiment: Y2H; INT ID 409
T7 construct: also called LOC157378; hypothetical protein BC017881
T7 sequence: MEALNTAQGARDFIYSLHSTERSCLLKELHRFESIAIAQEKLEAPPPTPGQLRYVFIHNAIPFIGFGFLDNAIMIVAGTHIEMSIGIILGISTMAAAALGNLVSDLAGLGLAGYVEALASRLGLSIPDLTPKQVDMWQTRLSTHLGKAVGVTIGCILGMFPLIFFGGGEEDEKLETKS

Measured: binding result

T5 sequence (Q92845 whole entry): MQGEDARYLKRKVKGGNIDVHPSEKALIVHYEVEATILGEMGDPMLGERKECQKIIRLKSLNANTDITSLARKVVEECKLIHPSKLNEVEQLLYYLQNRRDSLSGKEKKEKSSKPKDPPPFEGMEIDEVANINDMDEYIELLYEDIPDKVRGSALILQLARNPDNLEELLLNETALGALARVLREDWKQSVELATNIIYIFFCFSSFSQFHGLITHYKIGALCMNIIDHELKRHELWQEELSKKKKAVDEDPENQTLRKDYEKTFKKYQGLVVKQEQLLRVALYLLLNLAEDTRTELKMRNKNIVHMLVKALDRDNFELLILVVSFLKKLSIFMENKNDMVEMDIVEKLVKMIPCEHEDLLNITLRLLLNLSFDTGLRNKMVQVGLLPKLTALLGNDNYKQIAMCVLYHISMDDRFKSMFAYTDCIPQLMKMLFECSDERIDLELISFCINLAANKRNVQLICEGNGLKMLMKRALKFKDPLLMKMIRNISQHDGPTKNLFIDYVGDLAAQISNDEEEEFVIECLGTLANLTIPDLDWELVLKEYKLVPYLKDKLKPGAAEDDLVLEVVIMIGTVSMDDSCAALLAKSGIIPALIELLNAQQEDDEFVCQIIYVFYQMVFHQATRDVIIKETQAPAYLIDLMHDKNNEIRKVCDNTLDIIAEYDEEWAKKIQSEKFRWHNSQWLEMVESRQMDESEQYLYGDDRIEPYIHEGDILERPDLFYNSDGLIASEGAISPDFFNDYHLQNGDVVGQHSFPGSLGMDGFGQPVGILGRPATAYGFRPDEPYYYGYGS

B1: Human Papillomavirus 1a E1-E4 (other)
chain: MADNKAPQGLLGLLQYTPTTQPYPRVTPPSNRRPSTTPNSQDRGRPRRSDKDSRKHLYADGLTDGEDPEVPEVEDEEKENQRPLGHPDLSLLRETLEVYTQRLKRDILQDLDDFCRKLGIHPWSV
notes: also called HPV 1a E1-E4; cbe_251740
binds: all assays above
